Data: paper PMC4108388, “The Structure of RdDddP from Roseobacter denitrificans Reveals That DMSP Lyases in the DddP-Family Are Metalloenzymes” (PLoS ONE, 2014)

Target: the molecule itself
Assay: crystal structure; RdDddP crystallised in 4-4.5 M sodium chloride, 0.1 M Bis-Tris pH 6.5; space group P6(3)22, one molecule per asymmetric unit, dimer formed with a chain related by crystallographic symmetry; 2.15 Å native dataset

B1: putative DddP DMSP lyase from Roseobacter denitrificans Och 114 (enzyme, UniProt Q166H0 1-447, looked up)
chain: MNRHFNATRKIDPSRGATLGDGSPNDMNRVEIGPTQLAFAEWHTARLDLPDLAAMRRFRHRRLTDHVVARGYAGLLMFDPLNIRYATDSTNMQLWNTHNPFRATLLCADGYMVMWDYKNSPFLSEFNPLVREQRAGADLFYFDRGDKVDVAADVFANEVRILLRDHAPGLRRLAVDKVMLHGLRALQAQGFEIMDGEEVTEKARSVKGPDEIRAMRCASHACEVAVRKMEDFARSKVGDGVTCENDIWAILHSENVRRGGEWIETRLLASGPRSNPWFQECGPRVCQRNEIISFDTDLVGAYGICTDISRSWWIGDQKPRADMIYAMQHGVEHIRTNMEMLKPGVMIPELSANTHVLDAKFQKQKYGCLMHGVGLCDEWPLVAYPDHAVAGAYDYPLEPGMTLCVEALISEEGGDFSIKLEDQVLITEDGYENLTKYPFDPALMGVE
notes: putative DMSP lyase DddP (RdDddP), Roseobacter denitrificans Och 114, YP_682809; 453 residues, 51 kDa; the gene was amplified with printed primers that run from the ATG start codon to the stop codon; residues 10-444 are described in the structure; Homodimer formed by crystallographic symmetry; A few vector residues probably remain at the N-terminus after thrombin cleavage (NheI cloning in pET28); …
For B1, the “stoichiometry N” value was 2.
